We go through 33 molecules from patent US20230357323A1 (University of Washington, published 2023).

What is called Kd is a measure of binding affinity in units of concentration. A high value points to a looser complex. One may read the koff as the rate constant with which the complex falls apart. A higher koff goes with fast dissociation. The term kon denotes a measure of how fast the partners come together. A low value points to slower complex formation.

T1: human IL-23R (hIL-23R), custom construct with C-terminal avi and his tags, biotinylated (human, UniProt Q5VWK5 24-355, limits assumed, enzymatically biotinylated via the avi-tag)
T1 construct: immobilized on streptavidin tips in BLI, labeled target in FACS; also called human IL-23 receptor
T1 sequence (looked up): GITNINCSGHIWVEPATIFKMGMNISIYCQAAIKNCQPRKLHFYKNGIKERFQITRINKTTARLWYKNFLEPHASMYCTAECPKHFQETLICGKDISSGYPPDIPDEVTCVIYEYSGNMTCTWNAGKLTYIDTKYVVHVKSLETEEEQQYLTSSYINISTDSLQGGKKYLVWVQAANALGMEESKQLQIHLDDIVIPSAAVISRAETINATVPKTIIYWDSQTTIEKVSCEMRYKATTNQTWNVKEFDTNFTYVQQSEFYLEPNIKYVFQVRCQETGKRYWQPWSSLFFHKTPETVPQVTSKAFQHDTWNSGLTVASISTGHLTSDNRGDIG

B1: B04 (designed binder)
chain: NLWQIFYLLNTIIKRTGDPTAKKLKKALREALKKGDEKAVKELAKKAMKYIRS
B2: B09 (designed binder)
chain: B1 chain with L8V, I13Y, K25P, G35N, V40T
B3: B01 (designed binder)
chain: B1 chain with Q4M, K25L, R29Q, G35Y, V40I
B4: B07 (designed binder)
chain: B1 chain with L8M, I13F, K25L, L32T, V40M, M48T
B5: B05 (designed binder)
chain: B1 chain with Q4M, I13F, R29N, L32M, V40M, M48T
B6: B12 (designed binder)
chain: B1 chain with L8V, I13Y, K25P, L32M, G35N, V40I
B7: B02 (designed binder)
chain: B1 chain with L8I, L32T, V40M
B8: B10 (designed binder)
chain: NLWVIFYVLNTIIKRTGDPTAKKLVKALQEAMKKWDEKATKELAKKATKYIRS
B9: B11 (designed binder)
chain: B8 chain with V4I, V8Q, V25I, M32N, T40L
B10: A01 (designed binder)
chain: MEPEKYLREKVKKYYEGKLSQPEAVEEIRKYARKKGLEAWKLVWYFMELVKRDI
B11: A02 (designed binder)
chain: MEEEKYLRELVKKYYEQKLSHQEAVEIIRKYARKKGLEAWKLVWAFMQLVKRDI
B12: A09 (designed binder)
chain: MEEEKYLRELVKKYYEQKLSQPEAVEIIRKYARKKGEEAWYLIWMFMELVKRDI
B13: A07 (designed binder)
chain: B11 chain with Q17K, H21Q, Q22P
B14: A11 (designed binder)
chain: B11 chain with L7V, Q17G, E26V, I27E, A45M, D53N
B15: A14 (designed binder)
chain: B12 chain with I28V, E37L, Y41K, M45A, D53Y
B16: A12 (designed binder)
chain: B11 chain with E3P, L7V, H21Q, K41M
B17: A13 (designed binder)
chain: B10 chain with L7V, V43I, Y45H, E48Q
B18: A10 (designed binder)
chain: MEEEKYLREQVKKYYEGKLSVVEAVEEVRKYARKKGLEAWKLIWAFMQLVKRDI
B19: A06 (designed binder)
chain: B10 chain with L7V, K10L, G17K, K41M, Y45H, E48Q
B20: A05 (designed binder)
chain: B11 chain with L7V, L10Q, Q17K, H21Q, Q22P, V43I
B21: A04 (designed binder)
chain: B11 chain with L7V, Q17G, Q22P, I27E
B22: rA11dslf02B (designed binder)
chain: MEPEEFLLELCKAYYEGKLSQIEAVEEIRHYARSFGLEAWQLIWYFMQCVKRDI
B23: rA11dslf02A (designed binder)
chain: MEPEKFLKELCKAYYEGKLSQQEAVEEIRSYAMKWGLEAWMLIWYFMQCVKRDI
B24: rA11dslf02C (designed binder)
chain: B22 chain with M1P, E5K, L8S, H30S, F35W, Q41K
B25: rA11dslf02D (designed binder)
chain: PEPEKFLAELCKAYYEGKLSQPEAVEEIRSYARKWGLEAWKLVWYFMLCVKRDI
B26: rA11dslf02E (designed binder)
chain: B25 chain with K5Q, A8T, A13K, S30K, V43I, L48Q
B27: B06 (designed binder)
chain: B8 chain with V8L, I13H, V25I, Q29D, W35G, T48L
B28: B03 (designed binder)
chain: B1 chain with L8I, I13H, K25P, L32M, V40M, M48L
B29: A03 (designed binder)
chain: B18 chain with L7V, Q10L, V21Q, V22P, V28I
B30: A08 (designed binder)
chain: B10 chain with P3E, L7V, K10L, G17K, Y45A, D53N
B31: A03dslf04 (designed binder)
chain: MEEEKCVRELCKKYYEGKLSQPEAVEEIRKCARKKGLEAWKLIWAFMQCVKRDIHHHHHH
notes: E. coli, purified
B32: A05dslf01 (designed binder)
chain: B31 chain with L10Q, G17K, E27I
notes: E. coli, purified
B33: A08dslf03 (designed binder)
chain: B31 chain with C6Y, G17K, C31Y, I43V, Q48E, D53N
notes: E. coli, purified

Changes are numbered by the printed parent chain.

The first experiment has as its target T1, human IL-23R (hIL-23R), custom …. As to the kind of experiment: yeast display FACS, combinatorial library. How it is done:
To further enhance affinity, we incorporated mutations previously shown to enhance binding in a combinatorial library that was then sorted for binding hIL-23R to convergence in 6 rounds. The final selection pools were plated on solid media, and individual clones sequenced. 26 unique combinatorial variants appearing in the final selection pool (SEQ ID NOS: 11-24 and 111-122) were selected for expression in E. coli and further biophysical characterization.
(§1) Yeast strain EBY100 was transformed with each library and vector by electroporation and grow in minimal media selective for the yeast strain (-ura) and the transforming plasmid (-trp).²⁷ Expression was induced with 2% galactose. Surface expression was detected with anti-Myc-FITC (Immunology Consultants Laboratory) conjugate, and binding to biotinylated IL-23R was detected with streptavidin-PE (Invitrogen).
Yeast were then washed with PBSF and incubated for 2-5 minutes with stain solution (1:100 each anti-Myc-FITC and streptavidin-PE), washed, and resuspended for analysis and selection by FACS. FACS consecutive gates were set as follows: (1) cell granularity and size, selecting for yeast cells (BSC vs. FSC); (2) cell morphology, selecting singlets (FSC-height vs. FSC-width); (3) expression, selecting expressors by proxy of the Myc-tag (FITC fluorescence histogram); and (4) binding signal, selecting the top 1-5% relative to total population (PE vs. FITC).
For B1, the binding result is “binds”.
Same read-out and setting: then B2, with “binds”; and B3, with “binds”; and B4, with “binds”.
Same read-out and setting: the result for B5 reads “binds”; that for B6, “binds”.
As to B7, the binding result was “binds”.
Still for that read-out and setting: then B8, with “binds”.
With B9, the binding result was “binds”.
Take B10: the binding result is on record as “binds”.
For the molecule B11, the binding result is “binds”.
Same read-out and setting: then B12, with “binds”; and B13, with “binds”.
As for B14, the binding result is listed as “binds”.
Same read-out and setting: then B15, with “binds”; and B16, with “binds”.
The same measure, in the same setting: the result for B17 reads “binds”.
On the same count and under the same terms, the result for B18 reads “binds”; that for B19, “binds”.
Regarding B20, the binding result was “binds”.
Same read-out and setting: the result for B21 reads “binds”.

A further experiment has the same target. Nature of the experiment: yeast display FACS, SIF incubation then labeled hIL-23R, 5-7 rounds. On the procedure:
Yeast libraries were first incubated in SIF at 30C, then washed thoroughly and incubated with labeled hIL-23R, and cells retaining the highest binding signal (top 1-5%) were collected by FACS. Two rounds of selection were performed for each library, and the SIF incubation time and/or concentration of proteases were increased from first to second round. […] Indeed in several libraries we saw a large population of Myc-negative, binding-positive cells. In parallel, we performed two rounds of selection for binding to hIL-23R only, without pre-incubation in SIF. […] Best mutations were included in combinatorial libraries, sorted as above for 5-7 rounds after which individual clones were sequenced. Variants present in the final sorts were expressed in E. coli and characterized (SEQ ID NOS: 70-74 and 153-164).
as §1
SIF SSM and combinatorial libraries were prepared as follows: after 16-24 hours induction, yeast were spun down, washed with PBSF, resuspended in SIF (recipe described below) at an OD of 2.0, and incubated at 30° C. shaking for 30-90 minutes as noted. After SIF digest, cells were spun down and washed 4 times with 800 uL PBSF, manually aspirating the supernatant each time to ensure complete washing to remove proteases. SIF-treated cells were then treated with target protein as described above.
On to B22, for which the binding result is given as “binds”.
B23: the binding result was “binds”.
For the molecule B24, the binding result is recorded as “binds”.
On the same count and under the same terms, then B25, with “binds”; and B26, with “binds”.

The target is the same in a further experiment. As to the kind of experiment: biolayer interferometry titration, biotinylated hIL-23R immobilised on streptavidin tips, 1:1 fit. How it is done:
Variants were first screened for relative binding to hIL-23R with biolayer interferometry (BLI). hIL-23R was immobilized on the BLI sensor tips and binding to each variant in solution at a constant concentration (50 nM) was measured to qualitatively determine relative performance of the variants. For the best-performing variants, binding constants (KD, including kₒₙ, and koff) were quantitatively determined with BLI titration experiments in triplicate.
Qualitative and quantitative assessment of binding affinity was performed using biolayer interferometry (ForteBio Octet™ […] and associated software for analysis). Enzymatically biotinylated target protein (30 nM) was immobilized on streptavidin-coated sensor tips, then sequentially dipped in wells with: buffer only (baseline), inhibitor in solution (association), and buffer only (dissociation). Kinetic constants were determined from the mathematical fit of a 1:1 binding model.
Background: BLI is a label-free optical method that tracks binding on a fibre tip over time.
B27 came in with a Kd of 0.32 nM, a koff of 0.00011 s⁻¹ and a kon of 350000 M⁻¹ s⁻¹.
In the same order, the values of B28 are 0.14 nM, 5.6e-05 s⁻¹ and 400000 M⁻¹ s⁻¹.
In the same order, the values of B29 are 0.25 nM, 0.00024 s⁻¹ and 980000 M⁻¹ s⁻¹.
Molecule B30 gave a Kd of 0.37 nM, a koff of 0.00028 s⁻¹ and a kon of 770000 M⁻¹ s⁻¹.
In the same order, the values of B31 are 0.13 nM, 0.00034 s⁻¹ and 2.6e+06 M⁻¹ s⁻¹.
The molecule B32 registered a Kd of 0.46 nM, a koff of 0.00044 s⁻¹ and a kon of 960000 M⁻¹ s⁻¹.
In the same order, the values of B33 are 0.14 nM, 0.0002 s⁻¹ and 1.5e+06 M⁻¹ s⁻¹.
